These are literature values, as cited in publication PMC7587574.

The target of series [1] is PACAP receptor (PAC1R) (Homo sapiens) (UniProt P41586).
Series [2] shares this target. This is another data set of the same source.
In series [3] the target is κ-opioid receptor (Homo sapiens) (UniProt P41145).

Where two headings read alike, the source gives them in different places.

PACAP receptor (PAC1R) (Homo sapiens), sequence (P41586 21-468): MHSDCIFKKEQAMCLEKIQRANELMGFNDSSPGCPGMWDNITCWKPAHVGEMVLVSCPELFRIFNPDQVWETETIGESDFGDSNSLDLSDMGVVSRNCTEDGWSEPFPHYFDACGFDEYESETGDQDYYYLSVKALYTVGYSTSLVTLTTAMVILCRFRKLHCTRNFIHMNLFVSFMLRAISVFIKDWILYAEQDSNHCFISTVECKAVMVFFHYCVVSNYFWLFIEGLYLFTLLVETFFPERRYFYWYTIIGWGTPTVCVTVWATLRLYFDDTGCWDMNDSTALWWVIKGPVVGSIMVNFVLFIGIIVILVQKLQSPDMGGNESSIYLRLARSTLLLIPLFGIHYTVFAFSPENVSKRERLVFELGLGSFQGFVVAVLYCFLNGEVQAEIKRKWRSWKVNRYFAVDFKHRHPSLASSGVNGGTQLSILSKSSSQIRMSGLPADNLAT
PACAP, sequence (P18509 82-129): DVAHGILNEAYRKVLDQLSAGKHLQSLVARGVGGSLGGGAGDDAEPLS
PACAP (truncated), sequence (P18509 137-169): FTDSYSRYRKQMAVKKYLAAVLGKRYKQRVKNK
κ-opioid receptor (Homo sapiens), sequence (P41145 whole entry): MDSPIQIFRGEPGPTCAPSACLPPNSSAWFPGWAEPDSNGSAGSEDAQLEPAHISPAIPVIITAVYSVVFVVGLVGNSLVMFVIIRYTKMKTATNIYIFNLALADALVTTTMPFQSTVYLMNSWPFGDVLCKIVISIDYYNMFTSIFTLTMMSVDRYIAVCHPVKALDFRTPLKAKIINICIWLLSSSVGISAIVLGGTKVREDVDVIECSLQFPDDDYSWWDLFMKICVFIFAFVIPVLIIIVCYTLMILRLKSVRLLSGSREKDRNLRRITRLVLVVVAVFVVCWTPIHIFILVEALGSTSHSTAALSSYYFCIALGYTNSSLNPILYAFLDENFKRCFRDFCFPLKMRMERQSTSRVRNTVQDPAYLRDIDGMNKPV

PACAP (from UniProt P18509): the Kd in series [1] is 3 nM.

PACAP (truncated) (from UniProt P18509): the Kd in series [2] was 18000 nM.

Regarding “dynorphin 13-mer fragment (from UniProt P01213)”, in series [3], the Kd is 200 nM.

Broadly, the Kd is the concentration at which binding is half-saturated.
